Experimental findings from PMC6721692 are described below.

The stoichiometry N is the number of molecules, sites or subunits per partner or assembly.

Assay [1] addresses endogenous TrkB of cultured rat hippocampal neurons (rat (endogenous in hippocampal neurons)) (UniProt Q63604). In words: non-reducing SDS-PAGE and Western blot; lysates of rat hippocampal neurons (vehicle or BDNF 1.0 nM) with SDS, without β-ME; blots with 80E3 and MM12. On the technique in general: In western blotting, separated proteins are transferred to a membrane and probed.

Assay [2] shares this target. In words: native gel or EMSA; native PAGE (no SDS, no β-ME) of lysates of rat hippocampal neurons treated with vehicle or BDNF (1.0 nM, 15 min); Western blot with anti-TrkB antibodies (80E3, MM12). A general note: Mobility shift assays separate free from complexed probe on a gel.

endogenous TrkB of cultured rat hippocampal neurons, Q63604 32-821 (receptor; other documents disagree on this pair), sequence (Q63604 32-821): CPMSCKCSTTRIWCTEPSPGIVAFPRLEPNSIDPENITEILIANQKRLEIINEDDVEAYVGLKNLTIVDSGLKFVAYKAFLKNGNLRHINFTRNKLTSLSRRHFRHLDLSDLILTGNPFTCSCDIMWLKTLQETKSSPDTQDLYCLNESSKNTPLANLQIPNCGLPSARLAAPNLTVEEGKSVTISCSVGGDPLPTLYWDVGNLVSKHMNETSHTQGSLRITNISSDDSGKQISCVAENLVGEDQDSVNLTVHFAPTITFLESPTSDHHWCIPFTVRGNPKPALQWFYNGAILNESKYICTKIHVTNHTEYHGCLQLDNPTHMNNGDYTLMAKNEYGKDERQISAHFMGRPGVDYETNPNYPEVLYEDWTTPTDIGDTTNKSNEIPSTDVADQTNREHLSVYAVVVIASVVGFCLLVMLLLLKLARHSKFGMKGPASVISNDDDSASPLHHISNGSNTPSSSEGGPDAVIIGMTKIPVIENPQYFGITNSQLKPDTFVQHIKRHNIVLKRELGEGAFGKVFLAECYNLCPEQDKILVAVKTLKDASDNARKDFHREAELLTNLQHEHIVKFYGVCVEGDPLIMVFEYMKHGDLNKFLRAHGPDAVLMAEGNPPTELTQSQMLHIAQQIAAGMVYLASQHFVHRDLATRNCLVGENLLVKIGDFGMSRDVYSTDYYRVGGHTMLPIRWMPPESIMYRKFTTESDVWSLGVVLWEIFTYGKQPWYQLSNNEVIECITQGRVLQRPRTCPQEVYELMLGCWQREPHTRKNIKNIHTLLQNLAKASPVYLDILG

For “endogenous TrkB of cultured rat hippocampal neurons, Q63604 32-821 (receptor; other documents disagree on this pair)”, the stoichiometry N in assay [1] and in assay [2] was 2 each time.
